B1: A8H, A22K(N^ε-Octadecandioyl-γGlu-[2-(2-{2-[2-(2-aminoethoxy)ethoxy]acetylamino}ethoxy)ethoxy]-acetyl), B29R, desB30 human insulin (ligand)
chain 1: GIVEQCCHSICSLYQLENYCNK
chain 2: FVNQHLCGSHLVEALYLVCGERGFFYTPR
modifications: A22K(N^ε-Octadecandioyl-γGlu-[2-(2-{2-[2-(2-aminoethoxy)ethoxy]acetylamino}ethoxy)ethoxy]-acetyl)
notes: also called C18-gGlu-OEG-OEG, A8H, A22K, B29R
B2: A14E, A22K(N^ε-[2-(2-[2-(2-[2-(Octadecandioyl-γGlu)amino]ethoxy)ethoxy]acetylamino)ethoxy]ethoxy)-acetyl]), B25H, B29R, desB30 human insulin (ligand)
chain 1: GIVEQCCTSICSLEQLENYCNK
chain 2: FVNQHLCGSHLVEALYLVCGERGFHYTPR
modifications: A22K(N^ε-[2-(2-[2-(2-[2-(Octadecandioyl-γGlu)amino]ethoxy)ethoxy]acetylamino)ethoxy]ethoxy)-acetyl])
notes: also called C18-gGlu-OEG-OEG, A14E, A22K, B25H, B29R
B3: A14E, A22K(N^ε-Octadecandioyl-γGlu-(3-(2-{2-[2-(2-aminoethoxy)ethoxy]ethoxy}ethoxy)propionyl)-γGlu), B25H, B29R, desB30 human insulin (ligand)
chain 1: GIVEQCCTSICSLEQLENYCNK
chain 2: FVNQHLCGSHLVEALYLVCGERGFHYTPR
modifications: A22K(N^ε-Octadecandioyl-γGlu-(3-(2-{2-[2-(2-aminoethoxy)ethoxy]ethoxy}ethoxy)propionyl)-γGlu)
notes: also called C18-gGlu-PEG3-gGlu, A14E, A22K, B25H, B29R
B4: A18L, A22K(N^ε-Octadecandioyl-γGlu-[2-(2-{2-[2-(2-aminoethoxy)ethoxy]acetylamino}ethoxy)ethoxy]-acetyl), B29R, desB30 human insulin (ligand)
chain 1: GIVEQCCTSICSLYQLELYCNK
chain 2: FVNQHLCGSHLVEALYLVCGERGFFYTPR
modifications: A22K(N^ε-Octadecandioyl-γGlu-[2-(2-{2-[2-(2-aminoethoxy)ethoxy]acetylamino}ethoxy)ethoxy]-acetyl)
notes: also called C18-gGlu-OEG-OEG, A18L, A22K, B29R
B5: A14E, A22K(N^ε-Octadecandioyl-γGlu-(3-[2-(2-{2-[2-(2-{2-[2-(2-aminoethoxy)ethoxy]ethoxy}ethoxy)ethoxy]ethoxy}ethoxy)ethoxy]propionyl)), B25H, B29R, desB30 … (ligand)
chain 1: GIVEQCCTSICSLEQLENYCNK
chain 2: FVNQHLCGSHLVEALYLVCGERGFHYTPR
modifications: A22K(N^ε-Octadecandioyl-γGlu-(3-[2-(2-{2-[2-(2-{2-[2-(2-aminoethoxy)ethoxy]ethoxy}ethoxy)ethoxy]ethoxy}ethoxy)ethoxy]propionyl))
notes: also called C18-gGlu-PEG7, A14E, A22K, B25H, B29R
B6: A14E, A22K(N^ε-Eicosanedioyl-γGlu-γGlu-(3-[2-(2-{2-[2-(2-{2-[2-(2-aminoethoxy)ethoxy]ethoxy}ethoxy)ethoxy]ethoxy}ethoxy)ethoxy]propionyl)), B25H, B29R, desB30 … (ligand)
chain 1: GIVEQCCTSICSLEQLENYCNK
chain 2: FVNQHLCGSHLVEALYLVCGERGFHYTPR
modifications: A22K(N^ε-Eicosanedioyl-γGlu-γGlu-(3-[2-(2-{2-[2-(2-{2-[2-(2-aminoethoxy)ethoxy]ethoxy}ethoxy)ethoxy]ethoxy}ethoxy)ethoxy]propionyl))
notes: also called C20-gGlu-gGlu-PEG7, A14E, A22K, B25H, B29R
B7: A14E, A22K(N^ε-Eicosanedioyl-γGlu-(3-(2-{2-[2-(2-aminoethoxy)ethoxy]ethoxy}ethoxy)propionyl)), B25H, B29R, desB30 human insulin (ligand)
chain 1: GIVEQCCTSICSLEQLENYCNK
chain 2: FVNQHLCGSHLVEALYLVCGERGFHYTPR
modifications: A22K(N^ε-Eicosanedioyl-γGlu-(3-(2-{2-[2-(2-aminoethoxy)ethoxy]ethoxy}ethoxy)propionyl))
notes: also called C20-gGlu-PEG3, A14E, A22K, B25H, B29R

Biological target: T1, purified recombinant human insulin receptor (IR-A) (human, UniProt P06213-2 28-1370, limits assumed)
T1 construct: The receptor was captured on SPA beads through the F12 antibody
Assay: SPA competition, displacement of A14Tyr[125I]-human insulin from human insulin receptor, 0% HSA; relative to desB30 human insulin = 100%
Description: (§1) The affinity of the acylated insulin analogues of this invention for the human insulin receptor is determined by a SPA assay (Scintillation Proximity Assay) microtiterplate antibody capture assay. […] A total of 100 μl reagent mix is then added to each well in the Packard Optiplate and a dilution series of the insulin derivative is made in the Optiplate from appropriate samples. The samples are then incubated for 16 hours while gently shaken. The phases are the then separated by centrifugation for 1 min and the plates counted in a Topcounter. The binding data were fitted using the nonlinear regression algorithm in the GraphPad Prism 2.01 (GraphPad Software, San Diego, Calif.).

First: B1
Second: B2
The “IR-A affinity (0% HSA)” value of the first is higher: 417% for the first, 22.4% for the second.

First: B3
Second: B4
The “IR-A affinity (0% HSA)” value of the first is lower: 23% for the first, 339% for the second.

First: B5
Second: B6
The “IR-A affinity (0% HSA)” value of the first is higher: 28% for the first, 25% for the second.

Biological target: T1, purified recombinant human insulin …
Assay: SPA competition, displacement of A14Tyr[125I]-human insulin from human insulin receptor, 4.5% HSA; relative to desB30 human insulin = 100%
Description: as §1

First: B1
Second: B2
The “IR-A affinity (4.5% HSA)” value of the first is higher: 63% for the first, 5% for the second.

Going from B4 to B7, the “IR-A affinity (4.5% HSA)” value falls from 23.6% to 5.2%.
